From the nanobody polyreactivity screen of Harvey et al. (2022)

Experiment: yeast display, Sf9 membrane polyspecificity reagent, FACS + sequencing; frameworks hold sequencing errors
In short: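 Galactose induction of a Saccharomyces cerevisiae BJ5465 synthetic nanobody display library ran 36–48 hours. The cells were then stained for 1 hour at 4 °C with 10% biotinylated, detergent-solubilized Sf9 membrane reagent, pulled down on streptavidin microbeads and FACS-sorted into low and high (top ~1%) gates on expression and reagent-binding fluorescence. Labels for polyreactivity follow the gate of origin.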

Sequence | polyreactivity (PSR sort gate)
QVQLVESGGGLVQAGGSLRLSCAASGSTFDVYAMGWYRQAPGKERELVAGISSRGGRTYYADSVKGRFTISRDNAKNTVYLQMNSLKPEDTAVYYCAARYKGNPDRYGYWGQGTQVTVSS | high polyreactivity
KGQLVESGGGLVQAGGSLRLSCAASGSIFGENAMGWYRQAPGKERELVAAITSSGSTYYADSVKGRFTISRANAKNTVYLQMNSLKPEDTAVYYCAKVSVLRMDYWGQGTQVTVSS | low polyreactivity
QVQLVESVGGLVQAGGSLRLSCAASGGKFISYAMGRYRQAPRKERELVAAITSSGGSTYDADSVKGRFTISRDDAKNTVYLQMNSLKPEDTGVYYCAADHSTVLDVGSWGQGTQVTVSS | low polyreactivity
QVQLVESGGGLVQAGGSLRLSCAASGSIFEPNAMGWYRQAPGKERELVASITSGGTTYADSVKGRFTISRDNAKNTVYLQMNSLKPEDTAVYYCNARVKAFFDPSQYLYGHDYWGQGTQVTVSS | low polyreactivity
QVQLVESGGGLVQAGGSLRLSSAASGITFGAYAMGWYRPAPGKERELVAAIRRSDGSTYYADSVKGRFTISRDNAKNTVDLQINSLKPEETAVYYCAADEGLYQGYEYDYWGHGTQVTVSS | high polyreactivity
QVQLVESGGGLVQAGGSLRLSCAASGSTITQYAMGWYRQAPGKEREFVAAINSRGDSTYYADSVKGRFTISRDNAKNTVYLQMNSLKPEDTAVYYCNADYQTDDDPYGYDYWGQGTQVTVSS | low polyreactivity
QVQLVESGGGLVQAGGSLRLSCAASGRIFYYNAMGWYRQAPGKERELVATITGSGGSTYYADSVKGRFTISRDNAKNTVYLQMNSLKPEDTAVYYCNATRWYYDFYKLDYWGQGTQVTVSS | low polyreactivity
QVQLVESGGGLVQAGGSLRLSCAASGFIFVYYAMGWYRQAPGKERELVAAITSDVNTYYADSVKGRFTISRDNAKNTVYLQMNSLKPEDTAVYYCNADADDYRDYQDYDYWGQGTQVTVSS | low polyreactivity
QVQLVESGGGLVQAGGSLRLSCAASGFTFDFYAMGWYRQAPGKERELVADISSSDGSTYADSVKGRFTISRDNAKNTVYLQMNSLKPEDTAVYYCAADYDNQYDFSLDDEYWGQGTQVTVSS | low polyreactivity
QVQLVESGGGLVQAGGSLRLSCAASASIFRSYAMGWYRQAPGKERELVAAISWRGDSTYYADSVKGRFTISRDNAKHTVYLQMNSLKPEDTAVYYCNVQRSLRMDYWGQGTQGTVSS | high polyreactivity
QVQLVESGGGLDQAGGSLRLSCAASGSTFTSNAMGWYRQAPGKERELVAAITWSGARTYYADSVKGRFTISRDNAKNTVYLQLNSLKPEDTAVYYCAAYIAGVTGGSGYYYWGQGTQVTVSS | high polyreactivity
EVQLQESGGGLVQAGGSLRLSCAASGYTYNEYVMGWYRQATGKERELVAAISGSGGSTYYADSVKGRFTISRDNAKNTVYLQMNSLKPEDTAVYYCAARGYNSRGYDMDYWGQGTQVTVSS | high polyreactivity
QVQLVESGGGLVQAGGSLRLSCAASGSIFLVYGMGWYRPAPGKERELVAAISRTGGRTYYADSVKGRFTISRDNSKNTVYLQMNSLKPEDTAVYYCAAAAQRPEGYYWGQGTQVTVSS | high polyreactivity
QVQLVESGGGLVQAGGSLRLSCAASGSIFPYYAMGWYRQAPGKERDLVAAISWSGTSTYYADSLKGRFTISRDNAKNTVYLQMNSLNPEDTAVYYCAASGVGTNHYGYWNESDYWGQGTQVTVSS | low polyreactivity
QVQLVESGGGLVQAGCSLRLSCAASGRILFGYAMGWYRQAPGKERELVADITSTGSTNYADSVKGRFTISRDNAKNTVYLQMNSLKPEDTAVYYCNARRESYYQRYRVDYWGQGTQVTVSS | low polyreactivity
QVQLVESGGGLVQAGGSLRLSCAASGLIFWYYTMGWYRQAPGKESELVAAITIGGSTYYADSVKGRFTISRDNAKNTVYLQMNSLKPEDTAVYYCNTRRGRSPGGRYEYDYWGQGTQVTVSS | low polyreactivity
QVQLVESGGGLVQAGGSLRLTCAASGITLYNYAMGWYRQAPGKERELVAAISLSGGRTYYADSVKGRFTISRDNAKNTVYLQMNSLKPEDTAVYYCAADWLNSDPYNYWGQGTQVTVSS | low polyreactivity
QVQLVESGGGLVQAGGSLRLSCAASGSTLVRYAMGWYRQAPGKEREFVAAISWTGGSTYYADSVKGRFTISRDYAKNTVYLQMNSLKPEDTAVYYCSAEYFRGPSYSYWGQGTQVTVSS | high polyreactivity
QVQLVESGGGIVQAGGSLRLSCAASGFIFHLYGMGWYRQAPGKERELVAAISSGGRTYYADSVKGRFTISRDNAKNTVSLQMNSLKPEDTAVYSCAVYVAYLYSYYYWGQGTQVNVSS | low polyreactivity
LVQLVESGGGLVQAGGSLRLICAAYGSIFALNSLGWYSQAPGKERELVAAISRGDGTKYEHTVKGRFTISRDNAKTTVYLQMTSLKPEYTAVYYCAKDYWFRWRWPYNHWGLGTQVTVSS | low polyreactivity
QVQLVESGGGLVQAGGTLRLSCAASGSTLYPYDMGWYRQAPGKERELVAAIDSGGSTNYADSVKGRFTISRDNAKNTVYLQMNRLKPEDTAVYYCAADASGENDYWGQGTQVTVSS | low polyreactivity
QVQIEESGGGLVQAGGSLRLSCAASGSIFPLYTMGWSRQAPGKERELVAAIDFRGGSTYYADSVKGRFTISRDNAKNSVYLQMNSLKPEDTAVYYCAAAYWAYDTGKMGYWGQGTQVTVSS | low polyreactivity

Sequence | polyreactivity (PSR sort gate)
QVQLVESGGGLVQAGGSLRLSCAASGGIFYTNAMGWYRQAPGKERELVAAIRKNGDSTNYADSVKGRFTISRDNAKYTVYLHMNSLKPEDTAVYYCNDELWPWAYDYWGQGTQVTVSS | low polyreactivity
QVQLVESGGGLVQAGGSLRLSCAASGRTFVGNAMGWYRQAPGKERELVATITGSGGRTYYADSVKGRFTISRDNAKNTVYLQMNSLKPEDTAVYYCAAKRSRYRYDYWGQGTQVTVSS | high polyreactivity
QVQLVESGGGLVQAGGSLRLSCAASGSTLVTYTMGWYRQAPGKERELVASISWRGGSTYYADSVKGRFTISRDNAKNTVYLQMNSLKPEDTAVYYCNAVYYLWDYDYWGQGTQVTVSS | low polyreactivity
QVQLVESGGGLVQAGGSLRLSCAASGIIFLYNDMGGYRHAPGKEREFVATISRSGGSTYYADSVKGRFTISRDNAKNTVYLQMNSLKPEDTAVYYCAADEDSGYGYWGQGTQVTVSS | low polyreactivity
QVQLVESGGGLVQAGGSLRLSCAASGITFAYYVMGWYRQAPGKERELVATITGRGGSTSYADSVKGRFTISRDNEKNPVYLQMNSLKPEETAVYYCATGRYSVADNYWGQGTQVTVSS | high polyreactivity
QVQLVESGGGLVLAGGSLRLSCAASGSNFSPNAMGWYRKAPGKERELVAAITYRGANTYYADSVKGRFTISRDYAKNTVYFLMNSLKPEDTAVYFCAAEYAYHHVGFGYWGQGTQVTVSS | low polyreactivity
QVQLVESGGGLVQAGGSLSLSCAASGRTFWLNSMGWYRQAPGKERELVATISSSSGSTTYADSVKGRFTISRDNAKNTVYLQMNSLKPEDTAVYYCAADWSDDVPGYDYWGQGTQVTVSS | low polyreactivity
QVQLVESGGGLVQAGGSLRLSCAASGRIVANAMGWYRQAPGKESELVAAITATYYADSVKGRFTISRDNAKNTVYLQMNSLKPEDTAVYYFNAYLSPKQPLSPPDPSFEGGYWGQGTQVTVSS | low polyreactivity
QVQLVESGGGLVQAGGSLRLSCSASGSTFHPYAMGWYRQAPGKERELVAAINSGDNTYYADSVKGRFTITRDNAKNTVYLQMNSLKPEDTAVYYCAVRYWDESHTEYDYWGQGTQVTVSS | low polyreactivity
QVQLVESGGGLVQAGGSLRFSCAASGIIFYYKTMGLYRQAPGKERELVASITWSGDTTYYAYSVKGRYTISRDNAKNSVYLQMNSLKPEDTAVYYCAAACYWYPSYSSYLGMYYWGQGTKVTVSS | low polyreactivity
QVQLVESGGGLVQAGGSLRLSCAASGYTFQTYAMGCYRQAPGKERELVAAITRSGTRTYYADSVKGRFTISRDNAKNTVYLQMYSLKPEDTAVYYCAAETYYSIYDYWGQGTQVTVSS | high polyreactivity
QVQLVESCGGLVQAGGSLRLSCAASGSIFGTNAMGWYRQAPGKERELVASITRGGSTNYADSVKGRFTISRDNAKNTVYLQMNSLTPEDTAVYYCNAQGHWRWWGYDYWGQGTQVTVSS | low polyreactivity
QVQLVESGGGLVQAGGSLRLSCSASGSIFRFNAKGWYRQAPGKERELVASSRWDTASTYYADSVKGRFTISRDNAKNTVYLQMNSLKPEDTAVYYCNAGRPRFYRSRWYYYGYGYWGQGTQVTVSS | high polyreactivity
QVQLVESGGGLVQAGGSLRLSCAASGSIFQSNAMGWYRQAPAKESELVAAISSSGGRTYYADSVKGRFTISRDNAKNTVYFQMNSLKPEDTAVYYCAALGYPDGGWGLGTQVTVSS | low polyreactivity
QVQLVESGGGLVQAGGSLRLSCAASGSIFHINAMGWYRQAPGKERELVAAISSADRTYYADSVKGRFTISRDNAMNTVYLQMNSLKPEDTAVYYCAAVYYRYPYEYWGQGTQVTVSS | high polyreactivity
QVHLVESGGGLVQAGGSLRLSCAASGRTFGINAMGWNRQAPGKERELVAVISFGDGGTYYADSVKGRFTISRDNAKNTVYLQMNSLKPEDTAVYYCATDYQSTSVWGGHFVINPYDYWGQGTQVTVSS | low polyreactivity
QVQLVESGGGLVQAGGSLRLSCAASGSTFSPNAMGWYRQAPGKERELVAAITGGGSTYADSVKGRFTISRDNAKNTVYLQMNSLKPEDTAVYYFNADSYSFPYYYWGQGTQVTVSS | low polyreactivity
QVQLVESGGGLVQAGGSLRLSCAASGSIFDYNCMGWYRQAPGKESELVATITLSTARTYYADSVKGRFTISRDNAKNTVYLQMNRLKPEDTAVYYCATRYPKFRRRNYWGQGTQVTVSS | high polyreactivity
QVQLVESGGGLVQAGGSLRLSCAASGRTFGPYAMGWYRQAPGKERELVAAISRSGGRTYYADSVKGRFTISRDNAKNTVYLQMNSLKPEDTAVYYCAARYYSEPNAYYYWGQGTQVTVSS | high polyreactivity
QVQLVESWGGLVQAGGSLRLSCAASGFTLYYYAMGWYRPAPGKERELVARISLRGGRTYYADSVKGRFTISRDNAKTTVYLQMNSLKPEESAVYYCAAVGRYPITWESGESDYWGQGTQVTVSS | high polyreactivity
QVQLVESGGGLFQAGGSLSLSCAASGRIYNPNALGWYRQAPGKERELVAAITSGDSTNYADSVKGRFTISRDNAKNTVYLEMNSLKPEDTAVYYCAADWTYPYNSWGQGTQVTVSS | low polyreactivity
